According to the supplement of paper PMC10567573:

B1: CDS2 (parent)
chain: IHSIALSTFASLIGPFGGFFASGF
B2: MLL5 (parent)
chain: EQIAERKRKMVSWEASSLGLVTAA

Variants of: B1
Assay: protein stability index of a GFP-peptide fusion (GPS, HEK-293T) (PSI 1-6); higher = more stable
Conditions: c terminus: a fixed tail appended
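Also: lentivirally expressed fusions sorted by FACS into six bins by GFP to DsRed ratio, PSI derived from sequencing read proportions per bin multiplied by bin number.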

Protein stability index: each site, then its substitutions
I1: W 3.6
G17: R 2.63, Q 2.83
F20: T 3.03, V 3.06, H 2.66
S7: N 2.5, V 3
S22: W 2.44, I 2.2
I4: W 2.65, L 1.57
T8: G 2.63
G14: P 2.67
F16: I 4.33
F24: S 2.63, Y 2.52, I 2.91, T 3.42
A10: I 4.24, K 1.79, S 2.6, L 2.98
L6: E 4.38, W 2.43, P 2.23
I13: T 2.77, G 2.48, P 2.92
H2: P 1.95, W 2
G18: N 2.01, C 2.46, T 3.73, M 3.05
F9: C 2.62, P 2.63
L12: W 3.43, G 3.36, S 3.23, P 2.99, C 2.74
P15: G 3.77, S 2.34
S11: K 3.22, Q 3.26
G23: Y 2.63, N 3.46, M 3.23, T 2.53
A5: C 3.88
A21: T 3.65, V 2.06, W 2.61

Variants of: B2
Assay: as above
Conditions: c terminus: a fixed tail appended

Protein stability index, by site and new letter:
R6: L 2.65, W 2.09, I 1.65, Y 2.78, T 3.54, M 2.88, H 2.98, A 4.14, D 3.98, N 3, F 2.67, C 3.24, Q 2.76, G 3.38, K 3.18, E 3.56
K9: G 3.73, A 2.52, R 3.06, I 2.34, S 3.51, E 3.52, V 2.46, L 2.27, W 1.88, H 1.76, T 2.31, Y 2.97, C 1.53, F 2.06, Q 2.59, M 2.38, N 3.84
E14: Q 2.32, S 2.47, L 2.95, P 2.44, C 2.49, D 2.07, R 2.31, A 2.8, V 1.97, G 2.2, F 1.97, T 3, Y 2.52, N 3.39, H 2.85, I 2.22, M 2.24
E5: P 3.01, G 2.95, F 2.68, H 2.12, K 3.08, C 1.87, D 3.49, Q 2.79, N 2.07, V 2.44, S 2.13, W 1.8, I 2.33, A 2.25
K7: I 2.98, C 2.19, Y 2.29, V 3.02, F 2.74, T 2.69, Q 3.21, H 3.36, M 1.7, G 2.93, E 4.03, L 1.97
L18: A 3.31, I 1.91, H 2.97, V 2.53, T 3.5, K 3.86, Y 2.77, F 2.43, C 2.97, G 3.48, S 1.92, R 3.01, E 4.66, P 3.4, Q 3.72, N 3.52, D 4.24, M 3.16
I3: Q 3.09, L 3.07, F 2.72, V 3.63, S 3.05, N 3.64, R 2.76, E 2.29, Y 3.14, G 3.29, A 3.18, C 2.46, H 3.7, D 4.19, T 3.88, P 3.56, K 3.1
Q2: F 2.58, P 2.84, K 3.05, M 2.21, A 2.75, T 3.25, C 1.97, V 2.79, D 3.66, N 2.37, H 2.68, S 2.55
S12: A 3.35, F 2.16, L 2.37, M 3.36, R 3.36, E 3.92, Y 2.22, N 3.19, D 2.85, C 2.36, Q 2.33, P 2.59, V 2.68, H 2.35, K 2.59
M10: H 3.44, G 4.16, A 3.83, Y 2.89, E 4.23, N 3.5, I 2.81, Q 3.95, L 3.56, D 4.4, F 2.93, K 3.7, S 3.69, R 4.01, V 2.82, C 3.29, T 3.55
W13: K 3.85, N 4.02, M 3.07, V 4, H 3.97, A 4.19, E 4.77, L 3.86, Q 4.56, Y 3.29, P 4.38, T 3.77, G 4.82, D 4.67, S 4.33
A15: K 2.74, L 2.32, S 2.94, V 2.56, R 3.98, W 1.84, F 2.08, Q 2.93, N 2.67, H 3, M 2.64, C 2.28, E 3, Y 2.26, I 2.56, P 3.77
V11: P 3.55, C 2.87, H 3.24, G 3.39, W 3.34, D 2.81, F 2.63, M 2.54, L 2.63, E 4.18, Q 3.16, Y 3.14, S 2.99, T 2.87
S16: E 3.02, T 2.77, R 3.57, I 1.94, C 2.59, K 3.23, W 1.77, A 3.11, D 2.86, Q 3.05, P 3, H 1.57, V 2.29, L 1.99
S17: C 1.44, N 2.71, W 1.76, G 3.12, F 1.37, H 2.7, A 2.77, E 3.41, V 2.31, P 3.46, L 3.15, M 1.54, D 2.98, K 3.54, Q 3.08, Y 2.43, T 2.98
A4: Q 2.34, H 3.39, Y 2.8, D 3.67, P 3.85, I 2.38, S 3.34, R 3.59, K 3.36, L 2.95, V 2.56
E1: Y 2.41, L 2.53, M 2.41, N 3.06, P 3.16, W 1.69, C 1.44, K 4, V 2.55, F 1.42, R 2.77, T 2.67, D 3.35, I 2.78, G 3.27, A 2.18, Q 3.2
G19: D 3.32, C 2.38, E 3.71, A 2.1
R8: S 2.97, K 3.56, L 2.79, D 2.85, C 2.76, P 3.25, V 2.65, I 2.66, H 3.64, W 2.72, N 2.82, Y 2.86, A 3.81, T 3.89, F 2.01, E 3.98, M 3.17
